T1: Rab5A (Homo sapiens, UniProt P20339)
T1 construct: Full-length Rab3A, B, C and D and Rab5 cDNAs were subcloned into pFLAG-CMV-2 (SIGMA); expressed in transfected cells; host or cells: COS-1 cells (lysate)
T1 sequence (P20339 1-215): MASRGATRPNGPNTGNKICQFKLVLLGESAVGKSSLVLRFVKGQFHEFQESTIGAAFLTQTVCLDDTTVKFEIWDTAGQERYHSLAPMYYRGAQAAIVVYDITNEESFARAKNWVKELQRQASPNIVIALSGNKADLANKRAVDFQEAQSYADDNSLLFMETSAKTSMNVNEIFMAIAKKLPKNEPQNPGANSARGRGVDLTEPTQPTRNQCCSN


Experiments:
pancreatic acinar cells = assay: Amylase secretion from isolated pancreatic acinar cells; type: cell-based, mouse; conditions: 30 pM CCK or 1 μM carbachol, n=12, means±s.e.m.
Description: Pancreatic acini were prepared by collagenase digestion method. Amylase secretion experiments were performed according to Ohnishi et al. (28) with slight modifications. Briefly, isolated acini were suspended in an incubation buffer [consisting of 10 mM HEPES (pH 7.4), 127 mM NaCl, 4.7 mM KCl, 0.6 mM MgCl2, 1.3 mM CaCl2, 0.6 mM Na2HPO4, 2.0 mg/ml glucose, Eagle's MEM amino acids supplement, 2 mM L-glutamine, 1% BSA, 0.01% soybean trypsin inhibiter] as previously described (28) and preincubated at 37° C. for 30 minutes. After preincubation, the acini were centrifuged, resuspended in fresh incubation buffer, and incubated at 37° C. in the presence or absence of 30 pM CCK or 1 μM carbachol. Amylase released into the supernatant during incubation was quantified using Amylase B-test WAKO (WAKO PURE CHEMICAL INDUSTRIES). Amylase secretion was normalized as the amount released into the medium relative to the total amylase content in the pancreatic acinar cells (expressed as % amylase release).

Rab3 isoforms = assay: In vitro binding assay (cosedimentation, GST-Noc2 on glutathione beads); conditions: lysates of COS-1 cells transfected with FLAG-tagged Rab3 isoforms; GDP-βS or GTP-γS
Description: Pancreatic islets were isolated by collagenase digestion method in a conventional manner (27). The pancreatic islets were cultured for 48 hours in RPMI1640 medium in the presence or absence of PTX (30 ng/ml). Batch incubation was performed as previously described (27). Insulin released into the medium was measured by radioimmunoassay (EIKEN CHEMICAL). Recombinant adenoviruses carrying either LacZ, Noc2 wt (wild-type), or Noc2AAA (mutant) cDNA were generated according to the manufacturer's instructions (STRATAGENE). For preparation of Noc2AAA, Trp-Phe-Tyr (residues 154–156) were replaced with three alanine residues as previously described (24). […] Lysate from COS-1 cells transfected with a Flag-tagged Rab3 isoforms was evaluated for binding to the GST-Noc2 wild-type (Noc2 wt) or the GST-Noc2 mutant (Noc2AAA) in the presence of GTP-γS.
Wild type Noc2 and mutant Noc2 (Noc2AAA), both full-length, were expressed as GST-fusion proteins and purified according to the manufacturer's instructions (AMERSHAM). […] Briefly, lysates from COS-1 cells transfected with FLAG-tagged Rab3 isoforms and Rab5 were assessed for binding to GST-Noc2 immobilized on glutathione beads in the presence of GDP-βS or GTP-γS. Rab3 isoforms and Rab5 and GST-Noc2 were detected by immunoblotting with anti-Flag antibody or immunoglobulin G-purified antibody against rat Noc2.

Rab5A = molecular target: T1, Rab5A; assay: as above; conditions: lysates of COS-1 cells transfected with FLAG-tagged Rab5; GDP-βS or GTP-γS
Description: Wild type Noc2 and mutant Noc2 (Noc2AAA), both full-length, were expressed as GST-fusion proteins and purified according to the manufacturer's instructions (AMERSHAM). Full-length Rab3A, B, C and D and Rab5 cDNAs were subcloned into pFLAG-CMV-2 (SIGMA). For cosedimentation assays, COS-1 cells were transfected with each of the plasmids using LipofectAMINE (INVITROGEN). Following the transfection, the cells were sonicated in a buffer [20 mM HEPES, pH 7.4, 200 mM NaCl, 1 mM dithiothreitol, 5 mM MgCl2, 1 mM ATP and 0.26% (v/v) CHAPS]. In vitro binding assay was performed as previously described (15). Briefly, lysates from COS-1 cells transfected with FLAG-tagged Rab3 isoforms and Rab5 were assessed for binding to GST-Noc2 immobilized on glutathione beads in the presence of GDP-βS or GTP-γS. Rab3 isoforms and Rab5 and GST-Noc2 were detected by immunoblotting with anti-Flag antibody or immunoglobulin G-purified antibody against rat Noc2.

[1] = pancreatic acini of Noc2−/− mice, basal level 4.9±0.5%
[2] = pancreatic acini of wild-type mice, basal level 5.6±0.9%

Molecule	% amylase released of total amylase content (pancreatic acinar cells; [1]) [%]	% amylase released of total amylase content (pancreatic acinar cells; [2]) [%]	binding to Rab3 isoforms (Rab3A–D) (Rab3 isoforms)	binding to Rab5A (Rab5A)
C[N+](C)(C)CCOC(N)=O [carbachol, reference compound]	6.2±0.5	15.6±0.8	–	–
cholecystokinin (peptide, UniProt P06307 21-115, looked up, Cholecystokinin) Cholecystokinin: QPVPPADPAGSGLQRAEEAPRRQLRVSQRTDGESRAHLGALLARYIQQARKAPSGRMSIVKNLQNLDPSHRISDRDYMGWMDFGRRSAEEYEYPS	5.8±0.5	13.0±0.7	–	–
Noc2: full-length wild type Noc2 expressed as GST-fusion protein (protein, left off: a dimerising Fc or GST, full-length wild type Noc2 expressed as GST-fusion protein) MADTIFSSGNDQWVCPNDRQLALRAKLQTGWSVHTYQTEKQRRSQCLSPGELEIILQVIQRAERLDILEQQRIGRLVERLETMQRNVMGNGLSQCLLCGEVLGFLGSSSVFCKDCRKKVCTKCGIEASPGQKRPLWLCKICSEQREVWKRSGAWFYKGLPKYILPLKTPGRADDPHFRPLPVEPTETQPPSAETSRVYTWARGRVVSSDSDSDSDLSSSSLEDRPLPSGVKGTKGDKPRGDSGASMESPRLGPARPPSHLSGSQSSLGSEAGTGATEPQGGTPAQPEPRVPGKRHTWATPRY	–	–	binds to all of the isoforms of Rab3 in a GTP-dependent manner	not to Rab5A
Noc2AAA: mutant Noc2, Trp-Phe-Tyr (residues 154–156) replaced with three alanine residues, GST-fusion protein (protein) MADTIFSSGNDQWVCPNDRQLALRAKLQTGWSVHTYQTEKQRRSQCLSPGELEIILQVIQRAERLDILEQQRIGRLVERLETMQRNVMGNGLSQCLLCGEVLGFLGSSSVFCKDCRKKVCTKCGIEASPGQKRPLWLCKICSEQREVWKRSGAAAAKGLPKYILPLKTPGRADDPHFRPLPVEPTETQPPSAETSRVYTWARGRVVSSDSDSDSDLSSSSLEDRPLPSGVKGTKGDKPRGDSGASMESPRLGPARPPSHLSGSQSSLGSEAGTGATEPQGGTPAQPEPRVPGKRHTWATPRY	–	–	does not bind any isoform of Rab3	–
